From patent publication US20210260113A1, “DEVICES, METHODS, COMPOSITIONS AND SYSTEMS FOR THE TREATMENT OF AGING AND AGE-RELATED DISORDERS” (Gero LLC, priority 2018, published 2021)
No end group written: not given here.

Biological target: T1, NBL1 (AA 1-180) protein (FcTag) (Homo sapiens, UniProt P41271)
T1 construct: NBL1 (AA 1-180) protein (FcTag); purchased SinoBiological (via AntibodiesOnline) BIN2002229
T1 sequence (P41271 17-180): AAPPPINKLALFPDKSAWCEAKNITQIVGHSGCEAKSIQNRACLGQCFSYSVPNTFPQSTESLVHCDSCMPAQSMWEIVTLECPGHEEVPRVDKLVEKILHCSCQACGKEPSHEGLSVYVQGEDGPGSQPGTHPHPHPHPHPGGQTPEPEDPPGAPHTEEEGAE
Experiment: PEPperCHIP Discovery Microarray screening of cyclic peptide binders
Assay type: binding
Settings: cyclic peptides of common structure S1 with the given SEQ; NBL1 at 10 μg/ml
Excerpt: The peptide target binder discovery screening was done with PEPperCHIP® Discovery Microarrays with 36,040 random peptides with alength of 12 amino acids printed in duplicate (72,080 peptide spots). After peptide synthesis, all peptides were cyclized via a thioetherlinkage between a C-terminal cysteine side chain and an appropriately modified N-terminus. The PEPperCHIP® Discovery Microarrays contained additional myc(EQKLISEEDL, 415 spots) and HA (YPYDVPDYAG, 420 spots) control peptides as specified in the peptide maps of the microarray data files.
Samples: NBL1 (AA 1-180) protein (FcTag) (SinoBiological, AntibodiesOnline BIN2002229) Washing Buffer: PBS, pH 7.4 with 0.005% Tween 20 (2×10 sec after each assay) Blocking Buffer: Rockland blocking buffer MB-070 (30 min before the first assay) Incubation Buffer: Washing buffer with 1% blocking buffer Assay Conditions: Protein concentrations of […] in incubation buffer; incubation for 16 h at 4° C. and shaking at 140 rpm Secondary Antibodies: Mouse natriuretic peptides B DyLight800 antibody (1:5000; Hytest, AntibodiesOnline product ABIN263370), goat anti-human IgG (Fc) DyLight680 (1:5000); 45 min staining in incubation buffer at RT Control Antibodies: Mouse monoclonal anti-HA (12CA5) DyLight680(1:2000), mouse monoclonal anti-HA (12CA5) DyLight800 (1:2000); 45 min staining in incubation buffer at RT Scanner: LI-COR Odyssey Imaging System; scanning offset 0.65 mm, resolution 21 μm, scanning intensities of 7/7 (red=700 nm/green=800 nm)
After 15 min pre-swelling in washing buffer and 30 min in blocking buffer, two PEPperCHIP® Discovery Microarrays were initially incubated with the secondary antibodies mouse natriuretic peptides B DyLight800 (1:5000) and goat anti-human IgG (Fc) DyLight680 (1:5000) as well as with the control antibodies in incubation buffer to analyze background interactions with the 36,040 different random cyclic constrained peptides of the microarrays. Subsequent incubation of the PEPperCHIP® Discovery Microarrays was done with target proteins NBL1 at concentrations of 1 μg/ml and 10 μg/ml in incubation buffer and followed by staining with the secondary antibodies as well as read-out with a LI-COR Odyssey Imaging System at scanning intensity of 7/7 (red/green). The additional HA peptides framing the peptide microarrays were simultaneously stained as internal quality control to confirm the assay quality and the peptide microarray integrity.
A software algorithm breaks down fluorescence intensities of each spot into raw, foreground and background signal, and calculates averaged median foreground intensities and spot-to-spot deviations of spot duplicates. We tolerated a maximum spot-to-spot deviation of 40%, otherwise the corresponding intensity value was zeroed. Based on averaged median foreground intensities, an intensity map was generated and interactions in the peptide map highlighted by an intensity color code with red(NBL1 for high and white for low spot intensities.
To identify the top interactions of the target proteins, the averaged and corrected intensity values were sorted by decreasing spot intensities. We further plotted averaged spot intensities of all assays against the microarray content from left on top to right on bottom of the chip to visualize overall spot intensities and signal-to-noise ratios. For a better data overview, the baselines of the intensity plots were leveled and main responses annotated next to the corresponding signal. The intensity plots were correlated with peptide and intensity maps as well as with visual inspection of the microarray scans to identify peptides that interacted with target proteins NBL1.

intensity values, 10 μg/ml	Sequence
317.5	ARMRQTHRPVYR
338	ARQSHRRPGGKR
290	CHCIHFTHRRLR
216	DFKQLLLPGRKR
554	DMAARCVCKRRR
328	DSRKFFYRGNRR
448	FDWRISQRMRRR
174.5	FPMCQKVPFVRR
195	FPQSRGRGKLWR
215	FWFHLKYWAWRR
214	GDRGCFFIVTFI
192	GRHLPEASKRFR
176.5	HTWPYALTQKRR
172	IRHSDRVDRYSR
233	IYFYSCSVPGMY
249	KQRSKRMASMKLF
181	KVALFLANRLFR
190.5	KVRALRDISYRR
193.5	LFENCANVCIGL
212.5	LGPAACFTSEPV
177	LRLFKISRNFPR
213	LRNVVFIWHIRYR
185	LVMWHRHFALRR
251.5	MFFRPFKGHGRR
185	NCYHMVYYLIIL

intensity values, 10 μg/ml	Sequence
210	NKQMNHPPRRHR
301.5	RFNHVTCRTFKR
186	RFTYSPTQRAYR
179.5	RHGTRYHSRLFR
294.5	RKKDPRAYDRFR
205	RPRHVFKLYGRL
182.5	RQNANKAWQKRR
187	RRRAQPSPMRHK
234	RYNQSIRVIIGR
236.5	SQKMLRRGGMIRK
198	SRHNYSHWFYRR
489	TLRCHRHRFR
175	TYDNYIRYFRIR
189	VDFGGGWVCFCP
235.5	VHQCRASRYPRI
189	WVARDHVNHNRR (not fully specified (C-terminus, bridges); also: cyclized via thioether between C-terminal Cys side chain and modified N-terminus)
235	WVRIRLSRRQFR (not fully specified (C-terminus, bridges); also: cyclized via thioether between C-terminal Cys side chain and modified N-terminus)
185	YGSHYYWNHLRR (not fully specified (C-terminus, bridges); also: cyclized via thioether between C-terminal Cys side chain and modified N-terminus)
445	YHATGVRWRFLR (not fully specified (C-terminus, bridges); also: cyclized via thioether between C-terminal Cys side chain and modified N-terminus)
283	YHHKPQRQNRGR (not fully specified (C-terminus, bridges); also: cyclized via thioether between C-terminal Cys side chain and modified N-terminus)
197	YMPSNCCWWWRR (not fully specified (C-terminus, bridges); also: cyclized via thioether between C-terminal Cys side chain and modified N-terminus)
200.5	YWHKKLYYMRYR (not fully specified (C-terminus, bridges); also: cyclized via thioether between C-terminal Cys side chain and modified N-terminus)
323	YWTKGLLWRNRR (not fully specified (C-terminus, bridges); also: cyclized via thioether between C-terminal Cys side chain and modified N-terminus)
452	YYRIHHQRRGRS (not fully specified (C-terminus, bridges); also: cyclized via thioether between C-terminal Cys side chain and modified N-terminus)
